3 molecules from patent publication US20170296680A1 (NATIONAL RESEARCH COUNCIL OF CANADA, published 2017) can be followed below.

As usually defined, the Kd is the free concentration of one partner at which half of the binding sites on the other are occupied at equilibrium, for simple one-to-one binding. For orientation: koff means a measure of how fast the partners let go of each other.

For experiment [1], the target named is T1, recombinant human tau protein, isoform 2N4R (Tau-441) (human, UniProt P10636-8 1-441).
T1 construct: Bought
The experiment is described as follows: SPR, sdAb stored at 4 C, 30 days after IMAC purification.

Experiment [2] deals with T1, recombinant human tau protein, isoform …. The experiment is described as follows: SPR (Biacore T200), sdAb over immobilized antigen, steady state fit. The method, then: (§1) Surface Plasmon Resonance (SPR): All binding assays for Tau15 and Tau81 were carried out at 25° C. on a Biacore™ T200 instrument (GE Healthcare). […] The running buffer for all SPR experiments was HBS-EP+ (10 mM HEPES, 150 mM NaCl, 3 mM EDTA, pH 7.4, 0.05% surfactant P20; GE Healthcare). The sdAb were injected at 20 μL/min for 3 min with a dissociation time of 7 min for the test run, and at 20 μL/min for 2 min with a dissociation time of 6 min for the steady state analysis. Data was analyzed using the Biacore T200 evaluations software Version 2.0.
(§2) The KD value for the interaction between Tau15 and Tau81 sdAb and immobilized tau were derived by fitting the data to a steady state model and are reported in Table 1. […] Size exclusion chromatograms (FIG. 4) confirmed that Tau15 and Tau81 were monomeric.
In general terms: In SPR one partner is held on a chip, and binding of the other changes the refractive index at the surface.

In experiment [3] the target is hyperphosphorylated tau (tau-p; University of Victoria). Described as above. The protocol: as §1, §2
The target of experiment [4] is T1, recombinant human tau protein, isoform …. Put plainly: SPR, sdAb stored at 4 C, 34 days after IMAC purification.
Experiment [5] shares this target. The experiment is described as follows: SPR, sdAb stored at 4 C, 42 days after IMAC purification.
For experiment [6] the target is unchanged. Put plainly: SPR (Biacore 3000), over immobilized Tau-441, duplicate injection. The protocol: (§3) Surface Plasmon Resonance (SPR): All binding assays for DH-Tau15 and Fc-Tau15 were carried out at 25° C. on a Biacore™ 3000 instrument (GE Healthcare). […] The running buffer for all SPR experiments was HBS-EP+ (10 mM HEPES, 150 mM NaCl, 3 mM EDTA, pH 7.4, 0.05% surfactant P20; GE Healthcare). The antibodies were injected at 20 μL/min for 2 min with a dissociation time of 30 min. Data was analyzed using the Biacore 3000 BIAevaluations software Version 4.1.

For experiment [7] the target is unchanged. The experiment is described as follows: SPR, sdAb stored at 4 C, 55 days after IMAC purification.
Experiment [8] shares this target. The experiment is described as follows: SPR (Biacore 3000), over immobilized Tau-441. The method, then: as §3

Where “and” joins values, the source holds several entries; their conditions need not be identical. Equal entries are not always repeated.

T1 sequence (P10636 other isoform, or with tags, fused parts or gaps limits assumed): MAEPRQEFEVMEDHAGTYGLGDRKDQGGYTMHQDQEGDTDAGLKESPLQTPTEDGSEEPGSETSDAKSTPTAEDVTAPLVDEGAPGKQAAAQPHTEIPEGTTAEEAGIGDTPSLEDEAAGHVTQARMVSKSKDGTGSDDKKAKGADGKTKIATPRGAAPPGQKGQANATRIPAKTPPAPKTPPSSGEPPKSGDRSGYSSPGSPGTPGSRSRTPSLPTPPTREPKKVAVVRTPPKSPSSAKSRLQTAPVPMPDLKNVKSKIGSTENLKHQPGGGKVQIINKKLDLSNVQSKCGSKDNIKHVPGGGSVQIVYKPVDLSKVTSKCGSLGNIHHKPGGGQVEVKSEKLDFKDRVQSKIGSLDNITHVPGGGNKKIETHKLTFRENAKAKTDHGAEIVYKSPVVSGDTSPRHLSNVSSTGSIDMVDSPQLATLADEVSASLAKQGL

B1: Tau15 (VHH)
VHH: QVKLEESGGGLVQPGGSLRLSCAASGFTFSNFAMTWVRQSPGKGLEWVSAIDNDGGRTSYSDSVKGRFTISRDNAKNTLYLQMNSLKPEDTAMYYCAAMNLATRKWELWGQGTQVTVSS
notes: Llama single-domain antibody with VH (not VHH) hallmark residues in FR2; monomeric by SEC; expressed in E. coli periplasm; also called 3Tau15; sdAb Tau15; not shown: C-terminal cmyc and His6 tags (pSJF2H vector); OmpA leader removed on secretion
B1: the Kd in experiment [1] was found to be 605 nM; in experiment [2], 699 nM; in experiment [3], 622 nM; in experiment [4], 820 nM; in experiment [5] it was 534 nM; in experiment [7], 590 nM. For the same molecule, the koff in experiment [6] was 0.0632 s⁻¹ and 0.0667 s⁻¹.

B2: dimeric human hinge Tau15 (DH-Tau15) (VHH)
VHH: QVKLEESGGGLVQPGGSLRLSCAASGFTFSNFAMTWVRQSPGKGLEWVSAIDNDGGRTSYSDSVKGRFTISRDNAKNTLYLQMNSLKPEDTAMYYCAAMNLATRKWELWGQGTQVTVSS
notes: dimer through the hinge; also called dimeric hinge Tau15; hinge dimer
Turning to B2, in experiment [8], the “fold slower off rate than monomeric Tau15” value was roughly 1000 fold. The dissociation rate constant (koff) in experiment [6] was 4.27e-05 s⁻¹ and 3.45e-05 s⁻¹.

B3: Tau81 (VHH)
VHH: QVQLVESGGGLVQPGGSLKLSCAASGFTGDHYAMSWVRQAPGKGLEWVSTIYSYSPNTYYVDSVKDRFTISLDNAKNTLYLQMNSLKPEDTAVYYCAADLEVAEYYAYWGQGTQVTVSS
notes: Llama single-domain antibody with VH hallmark residues in FR2; mainly monomeric by SEC; also called 7Tau81; sdAb Tau81; not shown: C-terminal cmyc and His6 tags (pSJF2H vector); OmpA leader removed on secretion
With B3, the Kd in experiment [1] stood at 105 nM; in experiment [2], 820 nM; in experiment [3] it was 745 nM; in experiment [4], 175 nM; in experiment [5], 660 nM; in experiment [7] it was 507 nM.
